According to article PMC9332313, “Folding and Binding Mechanisms of the SH2 Domain from Crkl” (Biomolecules, 2022):

Experiments:
[1] = target: dansylated Pax_(112–123) peptide (Dans-GEEEHV-pY-SFPNK); experiment: stopped-flow fluorescence displacement kinetics (FRET); complex of 2 µM H60A mutant and 20 µM dansyl-Pax112-123 mixed with excess non-dansylated Pax112-123 (40 μM); 283 K; pH 5.5
[2] = target: dansylated Pax_(112–123) peptide (Dans-GEEEHV-pY-SFPNK); experiment: stopped-flow fluorescence displacement kinetics (FRET); complex of 2 µM H60A mutant and 20 µM dansyl-Pax112-123 mixed with excess non-dansylated Pax112-123 (40 μM); 283 K; pH 6.8
[3] = target: dansylated Pax_(112–123) peptide (Dans-GEEEHV-pY-SFPNK); experiment: stopped-flow fluorescence displacement kinetics (FRET); complex of 2 µM H60A mutant and 20 µM dansyl-Pax112-123 mixed with excess non-dansylated Pax112-123 (40 μM); 283 K; pH 7.5
His60 = His60 (UniProt position 60, NSRVSHYIINS); experiment: kinetics (stopped-flow fluorescence binding and displacement); settings: 283 K; 0.5 M NaCl plus 50 mM buffer; 50 mM sodium-acetate pH 5.0 and 5.5; 50 mM BisTRIS pH 6.0 and 6.8; 50 mM sodium-HEPES pH 7.5; 50 mM TrisHCl pH 8.0, 8.5 and 9.0; Binding reaction with dansyl-Pax112-123 phosphopeptide. The pKa comes from both association and dissociation rate constants, so no free or bound state is specified.

Substance | koff [1] [s⁻¹] | koff [2] [s⁻¹] | koff [3] [s⁻¹] | pKa (His60)
SH2 domain of Crkl protein (residues 1-111), H60A variant (from UniProt P46109 1-111) (domain or fragment) | 212 | 152 | 237 | 
Crk-like protein (Crkl) SH2 domain (Homo sapiens (inferred; not stated in the article)) |  |  |  | 7.1 ± 0.2
